Among the data in patent US20070248613A1 are IC50 (read off the curve) values, retold here.

For the assay, the target named is IZN36 (HIV).

B1: D5 IgG (antibody, V domains shown)
VH: QVQLVQSGAEVRKPGASVKVSCKASGDTFSSYAISWVRQAPGQGLEWMGGIIPIFGTANYAQKFQGRVTITADESTSTAYMELSSLRSEDTAIYYCARDNPTLLGSDYWGKGTLVTVSS
VL: DIQMTQSPSTLSASIGDRVTITCRASEGIYHWLAWYQQKPGKAPKLLIYKASSLASGAPSRFSGSGSGTDFTLTISSLQPDDFATYYCQQYSNYPLTFGGGTKLEIK
In turn, B1 came in with an IC50 (read off the curve) of 0.6 nM.
